In paper PMC6215091 one finds IC50 of inhibition of the peak current, whole-cell patch clamp, dose–response curve and IC50 of inhibition of the current, whole-cell patch clamp, dose–response curve data, which are given here for 2 substances.

Among the targets are NaV1.3 (UniProt P08104); NaV1.2 (UniProt P04775); NaV1.4 (UniProt P15390); NaV1.7 (UniProt Q15858); NaV1.6 (UniProt Q9WTU3); NaV1.5 (UniProt Q14524).
Test [1] has as its target NaChBac (Bacillus halodurans).
Test [2] has as its target NaChBac Q107A (Bacillus halodurans).
The target of test [3] is NaChBac F103A (Bacillus halodurans).
Test [4] has as its target NaChBac V109A (Bacillus halodurans).
Test [5] deals with NaChBac/F108A (Bacillus halodurans).
In test [6] the target is NaChBac/G105A (Bacillus halodurans).
Test [7] addresses NaChBac (Bacillus halodurans). The source holds these as a separate data set.

Read-outs that look alike come from different tables or passages of the source.

UniProt Q15858, sequence (Q15858 whole entry): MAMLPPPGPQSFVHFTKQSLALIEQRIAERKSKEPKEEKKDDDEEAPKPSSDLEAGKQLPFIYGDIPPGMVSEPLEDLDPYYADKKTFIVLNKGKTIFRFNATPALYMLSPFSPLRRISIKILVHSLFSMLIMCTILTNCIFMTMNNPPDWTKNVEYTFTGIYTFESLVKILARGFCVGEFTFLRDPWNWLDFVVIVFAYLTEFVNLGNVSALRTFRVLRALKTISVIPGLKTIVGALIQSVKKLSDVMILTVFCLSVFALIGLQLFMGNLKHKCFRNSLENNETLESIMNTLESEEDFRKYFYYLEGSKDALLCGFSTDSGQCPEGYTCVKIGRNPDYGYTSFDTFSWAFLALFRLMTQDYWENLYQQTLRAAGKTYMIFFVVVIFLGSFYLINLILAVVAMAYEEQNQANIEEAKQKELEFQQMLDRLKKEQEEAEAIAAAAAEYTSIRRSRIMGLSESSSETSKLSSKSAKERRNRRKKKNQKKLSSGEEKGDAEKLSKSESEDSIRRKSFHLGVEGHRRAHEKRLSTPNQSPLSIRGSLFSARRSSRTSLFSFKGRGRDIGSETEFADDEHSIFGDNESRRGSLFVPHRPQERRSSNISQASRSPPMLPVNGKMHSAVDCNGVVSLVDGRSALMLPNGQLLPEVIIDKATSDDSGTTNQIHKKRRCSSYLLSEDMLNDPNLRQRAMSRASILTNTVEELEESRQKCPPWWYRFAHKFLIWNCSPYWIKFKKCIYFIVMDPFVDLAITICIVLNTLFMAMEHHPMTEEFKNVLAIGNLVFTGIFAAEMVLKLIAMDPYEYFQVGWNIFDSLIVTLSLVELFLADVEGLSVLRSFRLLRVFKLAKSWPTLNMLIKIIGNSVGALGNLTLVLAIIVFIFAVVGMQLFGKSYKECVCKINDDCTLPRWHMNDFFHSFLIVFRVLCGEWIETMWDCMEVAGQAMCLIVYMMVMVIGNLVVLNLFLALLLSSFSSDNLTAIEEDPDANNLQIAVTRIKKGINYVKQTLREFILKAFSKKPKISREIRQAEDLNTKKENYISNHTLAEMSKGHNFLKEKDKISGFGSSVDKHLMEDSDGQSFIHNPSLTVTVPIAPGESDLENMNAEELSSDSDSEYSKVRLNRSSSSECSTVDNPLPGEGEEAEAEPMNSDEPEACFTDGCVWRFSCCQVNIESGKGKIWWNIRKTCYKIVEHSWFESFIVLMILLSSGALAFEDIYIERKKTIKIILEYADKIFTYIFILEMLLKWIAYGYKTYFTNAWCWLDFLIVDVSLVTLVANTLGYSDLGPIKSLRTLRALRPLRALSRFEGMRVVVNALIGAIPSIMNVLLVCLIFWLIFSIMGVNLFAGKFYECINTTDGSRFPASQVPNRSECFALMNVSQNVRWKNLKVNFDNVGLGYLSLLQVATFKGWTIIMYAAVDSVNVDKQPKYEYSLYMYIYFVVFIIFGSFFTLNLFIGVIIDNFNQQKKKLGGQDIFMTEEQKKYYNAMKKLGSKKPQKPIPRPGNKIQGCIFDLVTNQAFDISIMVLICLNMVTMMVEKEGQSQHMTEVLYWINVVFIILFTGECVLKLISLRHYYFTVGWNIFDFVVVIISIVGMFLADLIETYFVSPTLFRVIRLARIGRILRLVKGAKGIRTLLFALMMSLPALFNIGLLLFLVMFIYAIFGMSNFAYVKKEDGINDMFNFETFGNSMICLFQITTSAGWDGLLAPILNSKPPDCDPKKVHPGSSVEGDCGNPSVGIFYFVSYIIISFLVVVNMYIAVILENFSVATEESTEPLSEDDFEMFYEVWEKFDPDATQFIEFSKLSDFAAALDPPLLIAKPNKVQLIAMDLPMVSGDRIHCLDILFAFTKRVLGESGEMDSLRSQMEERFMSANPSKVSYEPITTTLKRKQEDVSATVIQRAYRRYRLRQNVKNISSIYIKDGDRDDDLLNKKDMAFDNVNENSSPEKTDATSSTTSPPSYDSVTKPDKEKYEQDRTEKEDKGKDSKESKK
UniProt P04775, sequence (P04775 whole entry): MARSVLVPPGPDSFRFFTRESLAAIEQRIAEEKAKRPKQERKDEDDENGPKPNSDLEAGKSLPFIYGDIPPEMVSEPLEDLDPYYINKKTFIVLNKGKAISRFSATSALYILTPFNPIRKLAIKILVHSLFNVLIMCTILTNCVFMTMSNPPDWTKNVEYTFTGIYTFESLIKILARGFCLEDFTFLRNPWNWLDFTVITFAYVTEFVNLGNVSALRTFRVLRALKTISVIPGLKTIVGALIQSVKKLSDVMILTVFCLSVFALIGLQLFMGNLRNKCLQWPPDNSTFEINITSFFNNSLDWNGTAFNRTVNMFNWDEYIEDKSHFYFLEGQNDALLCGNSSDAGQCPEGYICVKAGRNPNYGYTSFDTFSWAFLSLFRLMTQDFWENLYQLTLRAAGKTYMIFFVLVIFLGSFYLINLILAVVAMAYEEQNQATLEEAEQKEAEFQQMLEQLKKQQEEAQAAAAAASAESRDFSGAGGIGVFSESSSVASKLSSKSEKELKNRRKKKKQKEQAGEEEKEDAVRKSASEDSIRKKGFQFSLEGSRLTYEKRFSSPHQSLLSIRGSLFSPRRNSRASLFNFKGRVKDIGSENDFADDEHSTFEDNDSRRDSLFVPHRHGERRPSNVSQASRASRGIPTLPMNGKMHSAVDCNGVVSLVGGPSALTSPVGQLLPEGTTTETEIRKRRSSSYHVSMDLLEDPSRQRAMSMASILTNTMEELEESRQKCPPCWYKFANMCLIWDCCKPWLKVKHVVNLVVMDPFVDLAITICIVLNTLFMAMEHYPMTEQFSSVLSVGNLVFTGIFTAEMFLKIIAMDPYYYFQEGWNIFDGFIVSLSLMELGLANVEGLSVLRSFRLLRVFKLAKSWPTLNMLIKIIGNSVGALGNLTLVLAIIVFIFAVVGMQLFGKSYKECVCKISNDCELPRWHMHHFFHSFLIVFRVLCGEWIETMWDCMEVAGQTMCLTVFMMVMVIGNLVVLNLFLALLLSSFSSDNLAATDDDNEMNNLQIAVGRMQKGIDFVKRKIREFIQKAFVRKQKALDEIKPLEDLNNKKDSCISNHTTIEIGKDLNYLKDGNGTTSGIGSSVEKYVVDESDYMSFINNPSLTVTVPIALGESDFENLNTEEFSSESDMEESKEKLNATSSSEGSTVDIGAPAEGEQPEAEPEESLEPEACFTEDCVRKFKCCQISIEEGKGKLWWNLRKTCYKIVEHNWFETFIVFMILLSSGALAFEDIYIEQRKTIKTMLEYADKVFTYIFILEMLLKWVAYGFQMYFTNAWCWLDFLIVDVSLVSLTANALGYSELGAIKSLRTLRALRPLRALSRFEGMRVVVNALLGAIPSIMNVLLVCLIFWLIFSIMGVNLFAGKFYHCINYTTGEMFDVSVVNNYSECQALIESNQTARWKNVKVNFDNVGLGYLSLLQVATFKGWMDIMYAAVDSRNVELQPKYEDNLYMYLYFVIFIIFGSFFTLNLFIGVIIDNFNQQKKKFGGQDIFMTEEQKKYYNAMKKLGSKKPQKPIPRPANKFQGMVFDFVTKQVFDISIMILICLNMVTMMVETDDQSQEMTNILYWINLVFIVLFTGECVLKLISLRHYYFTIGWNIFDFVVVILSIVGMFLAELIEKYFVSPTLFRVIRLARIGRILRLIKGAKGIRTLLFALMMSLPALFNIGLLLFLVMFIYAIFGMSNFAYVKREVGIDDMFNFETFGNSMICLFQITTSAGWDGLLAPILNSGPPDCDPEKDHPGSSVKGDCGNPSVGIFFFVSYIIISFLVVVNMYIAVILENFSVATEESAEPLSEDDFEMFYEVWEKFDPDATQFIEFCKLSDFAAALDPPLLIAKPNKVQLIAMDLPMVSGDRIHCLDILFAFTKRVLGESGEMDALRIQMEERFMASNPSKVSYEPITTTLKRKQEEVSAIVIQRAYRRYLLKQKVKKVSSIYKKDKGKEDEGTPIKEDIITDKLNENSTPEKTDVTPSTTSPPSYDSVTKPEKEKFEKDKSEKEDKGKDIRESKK

Consider “JZTx-14 (from UniProt B1P1C0 30-62) (peptide)”, for which the IC50 of inhibition of the peak current, whole-cell patch clamp, dose–response curve with NaV1.3 amounted to 426 nM; with NaV1.2, 194 nM; in the test with NaV1.4, 290 nM; with NaV1.7, 189 nM; in the test with NaV1.6 it was 159 nM; with NaV1.5, 478 nM. The IC50 of inhibition of the peak current, whole-cell patch clamp, dose–response curve with NaV1.8/1.7L5 channel is 824 nM. The IC50 of inhibition of the current, whole-cell patch clamp, dose–response curve in test [1] stood at 320 nM; in [2] it was 810 nM; in test [3], 833 nM; in [4], 1370 nM; in test [5], 3470 nM; in [6], 653 nM.
In the case of JZTx-27 (peptide), the IC50 of inhibition of the current, whole-cell patch clamp, dose–response curve in test [7] amounted to 46.7 nM; in [5] it was 117 nM.
